These results are taken from PMC6856136, “Topological DNA-binding of structural maintenance of chromosomes-like RecN promotes DNA double-strand break repair in Escherichia coli” (Communications Biology, 2019).

The series deals with the molecule itself. The series can be described thus: SEC; gel filtration chromatography of purified His-RecN; single peak at a position indicating 308 kDa; column and buffer not told in the methods shown.

Usually stoichiometry N stands for the number of molecules, sites or subunits per partner or assembly.

B1: N-terminally hexahistidine-fused RecN (His-RecN), Escherichia coli (natural protein, E. coli, UniProt P05824 1-553, looked up)
chain: MLAQLTISNFAIVRELEIDFHSGMTVITGETGAGKSIAIDALGLCLGGRAEADMVRTGAARADLCARFSLKDTPAALRWLEENQLEDGHECLLRRVISSDGRSRGFINGTAVPLSQLRELGQLLIQIHGQHAHQLLTKPEHQKFLLDGYANETSLLQEMTARYQLWHQSCRDLAHHQQLSQERAARAELLQYQLKELNEFNPQPGEFEQIDEEYKRLANSGQLLTTSQNALALMADGEDANLQSQLYTAKQLVSELIGMDSKLSGVLDMLEEATIQIAEASDELRHYCDRLDLDPNRLFELEQRISKQISLARKHHVSPEALPQYYQSLLEEQQQLDDQADSQETLALAVTKHHQQALEIARALHQQRQQYAEELAQLITDSMHALSMPHGQFTIDVKFDEHHLGADGADRIEFRVTTNPGQPMQPIAKVASGGELSRIALAIQVITARKMETPALIFDEVDVGISGPTAAVVGKLLRQLGESTQVMCVTHLPQVAGCGHQHYFVSKETDGAMTETHMQSLNKKARLQELARLLGGSEVTRNTLANAKELLAA
notes: RecN, Escherichia coli; a fragment containing the recN gene from the pRecN plasmid cloned into pET15b; Copies: by gel filtration 'a homo-oligomeric complex, most likely a tetramer' (308 kDa); the discussion speaks of multimers larger than tetramers. pET15b may add linker residues between the His tag and RecN (surmised); also called E. coli RecN; source: E. coli BL21 (DE3), pET15b derivative, …
Consider B1, for which the “stoichiometry N” value is about 4.
